Measurements taken from US20230265185A1 (NATIONAL RESEARCH COUNCIL OF CANADA, published 2023).

T1: hCD22 fragment Bin 1, IVR1 (aa1-135), displayed on yeast cells (human, UniProt P20273 20-154)
T1 construct: range 1-135; Range is counted on the mature ECD, not on the UniProt entry; on P20273 it would be 20-154 (my arithmetic); also called CD22 Sub-Domain 1; not shown: Aga2-HA display fusion partner of vector pPNL6; MYC tag
T1 sequence (looked up): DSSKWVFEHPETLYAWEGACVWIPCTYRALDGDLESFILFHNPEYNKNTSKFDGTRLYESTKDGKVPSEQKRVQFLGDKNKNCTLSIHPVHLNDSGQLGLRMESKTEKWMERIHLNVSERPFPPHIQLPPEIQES

T2: hCD22 fragment Bin 3, IVR3 (aa211-317), displayed on yeast cells (human, UniProt P20273 230-336)
T2 construct: Range is counted on the mature ECD, not on the UniProt entry; on P20273 it would be 230-336 (my arithmetic); not shown: Aga2-HA display fusion partner of vector pPNL6; MYC tag
T2 sequence (looked up): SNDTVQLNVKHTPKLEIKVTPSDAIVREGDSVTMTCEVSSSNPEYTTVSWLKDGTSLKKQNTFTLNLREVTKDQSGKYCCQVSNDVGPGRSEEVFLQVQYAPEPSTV

T3: hCD22 fragment Bin 5, IVR5 (aa391-490), displayed on yeast cells (human, UniProt P20273 410-509)
T3 construct: range 391-490; Range is counted on the mature ECD, not on the UniProt entry; on P20273 it would be 410-509 (my arithmetic); not shown: Aga2-HA display fusion partner of vector pPNL6; MYC tag
T3 sequence (looked up): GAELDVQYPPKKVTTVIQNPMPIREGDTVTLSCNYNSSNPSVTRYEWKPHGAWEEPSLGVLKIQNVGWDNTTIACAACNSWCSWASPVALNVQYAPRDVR

T4: hCD22 fragment Bin 6, IVR6 (aa476-575), displayed on yeast cells (human, UniProt P20273 495-594)
T4 construct: range 476-575; Range is counted on the mature ECD, not on the UniProt entry; on P20273 it would be 495-594 (my arithmetic); also called CD22 Sub-Domain 6; not shown: Aga2-HA display fusion partner of vector pPNL6; MYC tag
T4 sequence (looked up): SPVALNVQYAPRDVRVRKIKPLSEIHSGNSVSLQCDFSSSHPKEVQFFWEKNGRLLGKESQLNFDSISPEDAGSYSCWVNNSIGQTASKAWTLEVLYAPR

T5: hCD22 fragment Bin 7, IVR7 (aa561-668), displayed on yeast cells (human, UniProt P20273 580-687)
T5 construct: range 561-668; Range is counted on the mature ECD, not on the UniProt entry; on P20273 it would be 580-687 (my arithmetic); also called CD22 Sub-Domain 7; not shown: Aga2-HA display fusion partner of vector pPNL6; MYC tag
T5 sequence (looked up): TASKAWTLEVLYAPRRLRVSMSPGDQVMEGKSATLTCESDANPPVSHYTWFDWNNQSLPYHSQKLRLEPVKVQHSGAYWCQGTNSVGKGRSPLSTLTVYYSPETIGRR

B1: hCD22pas-32 (VHH)
VHH: QVQLVESGGGLVQAGGSLRLSCAVSGRIFRSYVLGWFRQAPGKERELVARIGWSDTYYADSVKGRFTISRDNAKNTVDLQMNSLKPEDTAVYYCAANSPPYGPQRDEFGYWGQGTQVTVSS
modifications: single biotin at the VHH C-terminal (biotinylation signal sequence)
notes: llama VHH, expressed in E. coli TG1, IMAC purified, monomeric SEC fraction; also called VHH # 15; 6-hCD22 pas-32
B2: hCD221ug-10 (VHH)
VHH: QVQLVESGGGLVQAGGSLSVSCTASESTFSIMMGWFRQAPGKQREMVAVINSAGSTNYADSAEGRFTISRDLAKKTVSLQMNSLKPEDTAVYYCYVDGYFGQGTQVTVSS
modifications: single biotin at the VHH C-terminal (biotinylation signal sequence)
notes: llama VHH, expressed in E. coli TG1, IMAC purified, monomeric SEC fraction; also called VHH # 23; 5-hCD22 1ug-10
B3: hCD22pas-64 (VHH)
VHH: QVQLVESGGGLVQAGGSLRLSCAASGSTFSLNTMAWYRQAPGNQREYVAAASSDGYTNYADSVRGRFTISRDNDKNTMYLQMNSLRPEDTAVYYCTWGTGRFADYIYWGQGTQVTVSS
modifications: single biotin at the VHH C-terminal (biotinylation signal sequence)
notes: llama VHH, expressed in E. coli TG1, IMAC purified, monomeric SEC fraction; also called VHH # 25; 7-hCD22 pas-64
B4: hCD221ug-36 (VHH)
VHH: EVQLVDSGGGLVQAGGSLRVSCEASGITFSRAAMGWYRQRPGKERERVAVVNSDSSTIYADSVKGRFTISRDNAKNTVYLQMNSLEPEDTAVYYCWSPGFGSYWGQGTQVTVSS
modifications: single biotin at the VHH C-terminal (biotinylation signal sequence)
notes: llama VHH, expressed in E. coli TG1, IMAC purified, monomeric SEC fraction; also called VHH # 22; 4-hCD22 1ug-36
B5: hCD221ug-61 (VHH)
VHH: QVQLVESGGGLVQAGGSLRLSCAASMSSFSQYVMYWYRQAPGKQRELVATITSYSNTNYADSVKGRFTISRDNAKSIAYLQMDSLKPEDTAVYYCNAQYGSTFIRNHWDDWGQGTQVTVSS
modifications: single biotin at the VHH C-terminal (biotinylation signal sequence)
notes: llama VHH, expressed in E. coli TG1, IMAC purified, monomeric SEC fraction; also called VHH # 14; 3-hCD22 1ug-61
B6: hCD22pas-24 (VHH)
VHH: QVQLVESGGGLVQAGGSLRLSCSASGITSSINSMGWHRQAPGKQRELVASIGRGGSGSTKYADSGKGRFLISRDNNKNILFLEMNSLKPEDTADYYCLEVTTDLSSYWGRGTQVTVSS
modifications: single biotin at the VHH C-terminal (biotinylation signal sequence)
notes: llama VHH, expressed in E. coli TG1, IMAC purified, monomeric SEC fraction; also called VHH # 26; 8-hCD22 pas-24
B7: hCD221ug-13 (VHH)
VHH: QVQLVESGGGLVQAGDSLRLSCAGSGGSFSSVTMAWFRQAPGKDREFVAAITWSSPSTYYADSVKGRFTISRDNAKNTVYLQMNSLKPEDTAVYYCAGGRTGRGTSADTDEYNYWGQGTQVTVSS
modifications: single biotin at the VHH C-terminal (biotinylation signal sequence)
notes: llama VHH, expressed in E. coli TG1, IMAC purified, monomeric SEC fraction; also called VHH # 21; 1-hCD22 1ug-13
B8: hCD221ug-80 (VHH)
VHH: QVQLVESGGGLVQPGGSLRLSCTFSGFTLDYYVMVWFRQAPGKEREAVSCITSDGVTYYADSVKGRFTISRDNAKNTVYLQMNRVKPEDTAVYYCAVDKPFYDGGIQYTCPVDFDSWGQGAQVTVSS
modifications: single biotin at the VHH C-terminal (biotinylation signal sequence)
notes: llama VHH, expressed in E. coli TG1, IMAC purified, monomeric SEC fraction; also called VHH # 1; 2-hCD22 1ug-80

molecular target: T1, hCD22 fragment Bin 1, IVR1 (aa1-135), …; assay: yeast display cell ELISA
Experimental: (§1) The YSD vector (pPNL6) was from The Pacific Northwest National Laboratory, USA. […] The HRP activity was assayed with substrate TMB (tetramethyl benzidine) according to the manufacture’s conditions and read at OD₄₅₀.
(§2) The wells that gave rise to OD₄₅₀ above 0.25 were highlighted, indicating significant antibody-antigen interactions. All the sdAbs tested except hCd22_1ug-14 were assigned to specific Bin(s).

Row | Binder | binding result
1 | B1 | no binding (tested: OD450 not above 0.25; sdAb 250 nM)
2 | B2 | no binding (tested: OD450 not above 0.25; sdAb 250 nM)
3 | B3 | no binding (tested: OD450 not above 0.25; sdAb 250 nM)
4 | B4 | no binding (tested: OD450 not above 0.25; sdAb 250 nM)
5 | B5 | no binding (tested: OD450 not above 0.25; sdAb 250 nM)
6 | B6 | no binding (tested: OD450 not above 0.25; sdAb 250 nM)
7 | B7 | no binding (tested: OD450 not above 0.25; sdAb 250 nM)

molecular target: T2, hCD22 fragment Bin 3, IVR3 (aa211-317), …; assay: yeast display cell ELISA
Experimental: as §1, §2

Row | Binder | binding result
8 | B1 | no binding (tested: OD450 not above 0.25; sdAb 250 nM)
9 | B2 | no binding (tested: OD450 not above 0.25; sdAb 250 nM)
10 | B3 | no binding (tested: OD450 not above 0.25; sdAb 250 nM)
11 | B8 | no binding (tested: OD450 not above 0.25; sdAb 250 nM)
12 | B4 | no binding (tested: OD450 not above 0.25; sdAb 250 nM)
13 | B5 | no binding (tested: OD450 not above 0.25; sdAb 250 nM)
14 | B6 | no binding (tested: OD450 not above 0.25; sdAb 250 nM)
15 | B7 | no binding (tested: OD450 not above 0.25; sdAb 250 nM)

molecular target: T3, hCD22 fragment Bin 5, IVR5 (aa391-490), …; assay: yeast display cell ELISA
Experimental: as §1, §2

Row | Binder | binding result
16 | B1 | no binding (tested: OD450 not above 0.25; sdAb 250 nM)
17 | B2 | no binding (tested: OD450 not above 0.25; sdAb 250 nM)
18 | B3 | no binding (tested: OD450 not above 0.25; sdAb 250 nM)
19 | B8 | no binding (tested: OD450 not above 0.25; sdAb 250 nM)
20 | B4 | no binding (tested: OD450 not above 0.25; sdAb 250 nM)
21 | B5 | no binding (tested: OD450 not above 0.25; sdAb 250 nM)
22 | B6 | no binding (tested: OD450 not above 0.25; sdAb 250 nM)
23 | B7 | no binding (tested: OD450 not above 0.25; sdAb 250 nM)

molecular target: T4, hCD22 fragment Bin 6, IVR6 (aa476-575), …; assay: yeast display cell ELISA
Experimental: as §1, §2

Row | Binder | binding result
24 | B2 | no binding (tested: OD450 not above 0.25; sdAb 250 nM)
25 | B5 | no binding (tested: OD450 not above 0.25; sdAb 250 nM)

molecular target: T5, hCD22 fragment Bin 7, IVR7 (aa561-668), …; assay: yeast display cell ELISA
Experimental: as §1, §2

Row | Binder | binding result
26 | B1 | no binding (tested: OD450 not above 0.25; sdAb 250 nM)
27 | B3 | no binding (tested: OD450 not above 0.25; sdAb 250 nM)
28 | B4 | no binding (tested: OD450 not above 0.25; sdAb 250 nM)

molecular target: T4, hCD22 fragment Bin 6, IVR6 (aa476-575), …; assay: yeast display cell ELISA, native cells
Experimental: as §1
(§3) Table 7 depicts the assessment of the nature of the epitopes of CD22 sdAbs to determine if the epitopes for the sdAbs are continuous (linear) or non-continuous (conformational). […] The binding of each sdAb to native and denatured CD22 fragments was measured as OD₄₅₀, and the ratio of the binding to denatured CD22 to non-denatured CD22 was calculated, with the ratio ≥ 0.5 indicative linear (L), and the ratio < 0.5 indicative of conformational (C) epitopes.

Row | Non denatured CD22 OD [OD450] | Binder
29 | 2.98 | B3
30 | 2.57 | B8
31 | 3.5 | B4
32 | 0.453 | B7

molecular target: T5, hCD22 fragment Bin 7, IVR7 (aa561-668), …; assay: yeast display cell ELISA, native cells
Experimental: as §1, §3

Row | Non denatured CD22 OD [OD450] | Binder
33 | 3.5 | B2
34 | 3.5 | B5
35 | 3.5 | B6

molecular target: T4, hCD22 fragment Bin 6, IVR6 (aa476-575), …; assay: yeast display cell ELISA, biotinylated sdAb 250 nM
Experimental: as §1, §2

Row | OD450 [OD450] | Binder
36 | 1.38 | B3
37 | 2.25 | B8
38 | 2.97 | B4
39 | 0.433 | B7

molecular target: T5, hCD22 fragment Bin 7, IVR7 (aa561-668), …; assay: yeast display cell ELISA, biotinylated sdAb 250 nM
Experimental: as §1, §2

Row | OD450 [OD450] | Binder
40 | 0.75 | B2
41 | 2.84 | B5
42 | 2.89 | B6

molecular target: T1, hCD22 fragment Bin 1, IVR1 (aa1-135), …; assay: yeast display cell ELISA, heat denatured cells (80 C, 30 min)
Experimental: as §1, §3

Row | Heat Inactivated CD22 OD [OD450] | Binder
43 | 1.77 | B8

molecular target: T4, hCD22 fragment Bin 6, IVR6 (aa476-575), …; assay: as above
Experimental: as §1, §3

Row | Heat Inactivated CD22 OD [OD450] | Binder
44 | 2.04 | B3
45 | 2.62 | B8
46 | 3.5 | B4
47 | 0.272 | B7

molecular target: T5, hCD22 fragment Bin 7, IVR7 (aa561-668), …; assay: as above
Experimental: as §1, §3

Row | Heat Inactivated CD22 OD [OD450] | Binder
48 | 0.32 | B2
49 | 2.33 | B5
50 | 2.11 | B6

molecular target: T4, hCD22 fragment Bin 6, IVR6 (aa476-575), …; assay: yeast display cell ELISA, OD on denatured over non-denatured CD22 fragment
Experimental: as §1, §3

Row | CD22 Ratio (D/ND) | Binder
51 | 0.684 | B3
52 | 1.02 | B8
53 | 1 | B4
54 | 0.6 | B7

molecular target: T5, hCD22 fragment Bin 7, IVR7 (aa561-668), …; assay: as above
Experimental: as §1, §3

Row | CD22 Ratio (D/ND) | Binder
55 | 0.091 | B2
56 | 0.665 | B5
57 | 0.603 | B6
